Patent publication US5736356A, “Transglutaminase originating from Crassostrea gigas” (Ajinomoto Co., Inc., priority 1994, dated 1998)

B1: TGase of Cavia porcellus: TGase originated from Cavia porcellus (available from Takara Co., Ltd.), used as control (protein)
chain: AEDLILERCDLQLEVNGRDHRTADLCRERLVLRRGQPFWLTLHFEGRGYEAGVDTLTFNAVTGPDPSEEAGTMARFSLSSAVEGGTWSASAVDQQDSTVSLLLSTPADAPIGLYRLSLEASTGYQGSSFVLGHFILLYNPRCPADAVYMDSDQERQEYVLTQQGFIYQGSAKFINGIPWNFGQFEDGILDICLMLLDTNPKFLKNAGQDCSRRSRPVYVGRVVSAMVNCNDDQGVLQGRWDNNYSDGVSPMSWIGSVDILRRWKDYGCQRVKYGQCWVFAAVACTVLRCLGIPTRVVTNFNSAHDQNSNLLIEYFRNESGEIEGNKSEMIWNFHCWVESWMTRPDLEPGYEGWQALDPTPQEKSEGTYCCGPVPVRAIKEGHLNVKYDAPFVFAEVNADVVNWIRQKDGSLRKSINHLVVGLKISTKSVGRDEREDITHTYKYPEGSEEEREAFVRANHLNKLATKEEAQEETGVAMRIRVGQNMTMGSDFDIFAYITNGTAESHECQLLLCARIVSYNGVLGPVCSTNDLLNLTLDPFSENSIPLHILYEKYGDYLTESNLIKVRGLLIEPAANSYVLAERDIYLENPEIKIRVLGEPKQNRKLIAEVSLKNPLPVPLLGCIFTVEGAGLTKDQKSVEVPDPVEAGEQAKVRVDLLPTEVGLHKLVVNFECDKLKAVKGYRNVIIGPA

Tests used:
[1] = test system: dimethylated casein and monodansylcadaverine; experiment: Effect of NaCl and Ca2+ on enzyme activity; format: biochemical; details: increasing NaCl concentration
[2] = test system: methylated casein and monodansylcadaverine; experiment: Transglutaminase activity of crushed cell supernatant of transformed Escherichia coli (pCGTG4E); format: biochemical; details: cultivation temp. 26° C.; control: 1.2 μg protein
Text: Then the transglutaminase activity of the crude extract was investigated by an activity-detection method which made use of an increase in the intensity of fluorescent light (the fluorescent intensity observed at 480 nm while exciting with the light rays of 350 nm) due to the linkage of monodansylcadaverine to methylated casein as an indication. This activity-detection method is the method disclosed in Nippon Suisan Gakkaishi, 1991, 57, pp. 1203-1210 which is slightly modified. More specifically, 20 μl of each crude extract was added to 2 ml of a solution comprising 50 mM Tris-HCl buffer (pH 8.5), 1 mg/ml methylated casein, 15 μM monodansylcadaverine and 10 mM calcium chloride, followed by stirring and keeping warm at 37° C. for 20 minutes. After the reaction, 100 μl of 500 mM EDTA solution was added to the reaction system and each reaction solution was inspected for the intensity of emitted fluorescent light using a fluorophotometer (Shimadzu RF-1500, available from Shimadzu Corporation).
The colony of the transformant (FERM BP-4962) thus obtained was inoculated on 50 ml of LB culture medium (comprising 10 g/l of trypton, 5 g/l of yeast extract and 10 g/l of NaCl (pH 7.0)) supplemented with 50 mg/l of ampicillin and 10 mM of IPTG contained in a Sakaguchi flask, followed by cultivation at 26° C. for 21 hours and collection of the bacterial cells from the culture medium. […]

[3] = test system: methylated casein and monodansylcadaverine; experiment: Transglutaminase activity of crushed cell extract of transformed Saccharomyces cerevisiae; format: biochemical; details: 0.35 ml supernatant, GAL1 induced; control: 1.2 μg protein
Description: Then the transglutaminase activity of the crude extract was investigated by an activity-detection method which made use of an increase in the intensity of fluorescent light (the fluorescent intensity observed at 480 nm while exciting with the light rays of 350 nm) due to the linkage of monodansylcadaverine to methylated casein as an indication. […] More specifically, 20 μl of each crude extract was added to 2 ml of a solution comprising 50 mM Tris-HCl buffer (pH 8.5), 1 mg/ml methylated casein, 15 μM monodansylcadaverine and 10 mM calcium chloride, followed by stirring and keeping warm at 37° C. for 20 minutes. After the reaction, 100 μl of 500 mM EDTA solution was added to the reaction system and each reaction solution was inspected for the intensity of emitted fluorescent light using a fluorophotometer (Shimadzu RF-1500, available from Shimadzu Corporation).
The transformant was first inoculated on 50 ml of a glucose synthesis minimum medium (prepared by adding 2% glucose and 50 mg/ml of histidine to the foregoing synthesis minimum medium) contained in a Sakaguchi flask and cultivated at 30° C. for 24 hours by shaking culture to increase the number of the cells. […]

[4] = test system: methylated casein and monodansylcadaverine; experiment: Transglutaminase activity of yeast crushed cell extract while changing the NaCl concentration; format: biochemical; details: control: 1.2 μg protein
Text: The crushed cell extract of the foregoing Saccharomyces cerevisiae INVSC2/pCGTG4S AJ14697 (FERM BP-4964) was inspected for the transglutaminase activity while changing the NaCl concentration in the reaction solution by way of comparison (Table 7).

Row | Molecule | Increase in Fluorescent Intensity (increase in fluorescent intensity) (dimethylated casein) | effect of NaCl concentration on enzyme activity (in words) [1] | Increase in Fluorescent Intensity [2] | Increase in Fluorescent Intensity [3] | Increase in Fluorescent Intensity [4]
1 | recombinant type transglutaminase of Crassostrea gigas expressed in Saccharomyces cerevisiae INVSC2/pCGTG4S (enzyme) | 46.6 | – | – | – | –
2 | B1 | – | did not show any increase | 4.3 | 3.4 | 3.5
